Source: the nanobody polyreactivity screen of Harvey et al. (2022)

Experiment: yeast display, Sf9 membrane polyspecificity reagent, FACS + sequencing; frameworks hold sequencing errors
How it was run: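 A synthetic nanobody library was expressed on Saccharomyces cerevisiae BJ5465 by galactose induction for 36–48 hours. The library was stained for 1 hour at 4 °C with 10% biotinylated, detergent-solubilized Sf9 membrane reagent and enriched with streptavidin microbeads before FACS. Low and high (top ~1%) gates were set on anti-HA fluorescence for expression and streptavidin fluorescence for reagent binding, and each polyreactivity label reflects the gate of origin.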
With “QGQLVESGGGLVQAGGSLRLSCAASGGIFIFYAMGWYRQAPGKERELVAAISNVSSTNYADSVKGRFTISRDNAKNTVYLQMNSLKPEDTAVYYCNAVGVPSEYYSWGQGTQVTVSS” the “polyreactivity (PSR sort gate)” value was “low polyreactivity”.
With “QVQLVESGGRLVQAGGILRLSCAASGRSFYFYAMGWYRKAPGKERELVAAITRGDDTNYADSVKGRFTISRDNAKNTVNLQMNSLKPEDTAVYYFGYATEYDYWGQGTQVTVSS” the “polyreactivity (PSR sort gate)” value was “low polyreactivity”.
In the case of “QVQLVESGGGLVQAGGSLRLSCAASGSTFVIYAMGWYRQAPGKERELVAAIRRRGGSTYYADSVKGRFTISRDNAKNTVYLQMNSLKPEDSAVYYCATAGQGAFWGQGTQVTVSS”, the “polyreactivity (PSR sort gate)” value is reported as “high polyreactivity”.
With “QVQLVESGGGLVQAGGSLRLSCAASGITFRTYAMGWYRQAPGKERELVAAISGSSTSTYYADSVKGRFTISRDNAKNTVYLLMNSLKPEDTAVYYCAAGYRVSVYRYYYWGQGTQVTVSS” the “polyreactivity (PSR sort gate)” value was “high polyreactivity”.
With “QVQLVESGGGLVQAGGSHRLSCAASGSIYLYYAMGRYRQAPGKERELVAGINRVGSTNYADSVKGRFTISRDNAKNTVYLQMNSLKPEDTAGYYCAKVVNGGYFYYQYPAQYYYWGQGTQVTVSS” the “polyreactivity (PSR sort gate)” value was “low polyreactivity”.
With “QVQLVESGGGLVQAGGSLRLSCAASGFTFYRYAMGSYRQAPGKERELVAAITFRGDSTYYADSVKGRFTISRDNAKNTVYLQMNSLKPEDTAVYYCAADRPSGWYSYLSLYIVRRGYWGQGTQVTVSS” the “polyreactivity (PSR sort gate)” value was “low polyreactivity”.
With “QVQLVESGGGLVQAGGSLRLSCAGSGRTSLAYAMGWYRQAPGKERELVAGITSGGNTNYADSVKGRFTISCDNAKNTVYLQMNSLKPEDTAVYYCNKKKRWQWYSESVLDYLGFYSWGQGTQVTVSS” the “polyreactivity (PSR sort gate)” value was “low polyreactivity”.
For “QVQLVESGGGLVQAGGSLLLSCAASGSIFGKNAMGWYRQAPGKERELVAAISRSGARTYYADSVKGRFTISRDNAKNTVYLQMNSLKPEDTAVYDCAAVYWWAYRGTYSSLYKHFVYWGQGSQVTVSS”, the “polyreactivity (PSR sort gate)” value was “high polyreactivity”.
For “QVQLVESGGGIVQAGGSLRLSCAASGSTLGSNSMGWYRQAPGKERELVAAITWSGGTTYYADSVKGRFTISRDNAKNTVYLQMNSLKPEYTAVYYCATGQSVIYRYEYWGQGTQVTVSS”, the “polyreactivity (PSR sort gate)” value was “low polyreactivity”.
In the case of “QDQLVESGGGLVQAGGSLRLSCAASGSTVSYYTMGWYRQAPGKERELVAAINGSGGSTYYADSVKGRFTISRDNAKNNVYLQMNSMKPEDTAVYYCAADIKRVLDIPMYYWGQGTQVTVSS”, the “polyreactivity (PSR sort gate)” value is reported as “low polyreactivity”.
In the case of “QVQLVESGGGLVQAGGSLRLSCAASGLTFGDYTMGWYRQAPGKERELVAAITWSGASTYSADSVKGRFTISRDNAKNTVYLQMNSLKPEDTAVYYCAAERTPSYRAYDYWAQGTQVTVSS”, the “polyreactivity (PSR sort gate)” value is reported as “low polyreactivity”.
With “QVQHVESGGGLVQAGGSLRLSCAASGGIFHGYAMGWYRQAPGKERELVAAISRGGSTNYADSVKGRFTISRDNAKNTVYLQMNSLKPQDTAVYYCAARTRWFKGYDYWGQGTQVTVSS” the “polyreactivity (PSR sort gate)” value was “high polyreactivity”.
For “QVQLVETGRGLVQAGGSLRLSCAASGRIFRGYAMGWYRQAPGKERELVAAINWSGGNTYYADSVKGRFTISRDNAKNTVYLQMNSLKPEDTAVYYCATLGYLGGGYWGQGTQVTVSS”, the “polyreactivity (PSR sort gate)” value was “high polyreactivity”.
For “QDQLVESGGGLVQAGGSLRLSCAASGFTFFPYAMGWYRQAPGKERELVAGINDGGSTNYADSVKGRFTISRDNAKNTVYLQLNSLKPEDTAVYYCNADTPLSGGSSMGYWGQGTQVTVSS”, the “polyreactivity (PSR sort gate)” value was “low polyreactivity”.
With “QVQLVDSGGGLVQAGGSLRLSCAASGRTFGVYAIGWYRQAPGKERELVAAITSGGSTNYADSVKGLLTISRDNANNTVYLQMNSLKPEDTAVYYCAARYKAYWQLYDYWGQGTQVTVSS” the “polyreactivity (PSR sort gate)” value was “high polyreactivity”.
In the case of “QVQLVESGGGLVHAGGSLRLSCAASGSTFIRNAMGWYRQAPGKERELVAAISSSGGRTYYADSVKGRITISRDNAKNTVYVQMNSLKPEDTAVYYCAARYVPPWGRRYYYWGQGTQVTVSS”, the “polyreactivity (PSR sort gate)” value is reported as “high polyreactivity”.
In the case of “QVQLVESGGGLVQAGGSLRLSCAASGFIFDSYAMGWYRQAPGKERELVAAISWSGGRTYYADSVKGRFTISRDNAKYTVYLQMNSLKPEDTAVYYCNVRTKLSSSYDYWGQGTQVTVSS”, the “polyreactivity (PSR sort gate)” value is reported as “high polyreactivity”.
In the case of “QVQLVESGGGLVQAGGSLRLSSAASGSTFPVNARGCYRQAPGKERELVAAISSRGSSTYYADSVKGRFTISRDNAKNTVYLQMHSLNREDTAVYYCAAQQRFPRFYYWGEGTQVTVSS”, the “polyreactivity (PSR sort gate)” value is reported as “high polyreactivity”.
For “QVQLVESGGGLVQAGVSLRLSCAASGRIFYAYAMGWYRKAPGKERELVAAISSSGRTYYADSVKGRLTISRDNAKNTVYLQMNSLKPEDTAVYYCAVDWSRQAHKFNYWGQGTQVTVSS”, the “polyreactivity (PSR sort gate)” value was “high polyreactivity”.
In the case of “QVQLVESGGGLVQAGGSLRLSCAASGFTFWRNAMGWYRQAPGKERELVAAISWRGGSTYYADSVKGRFTISRDNAKNTVYLQMNSLKPEDTAVYYCNALHWQSKELDYYWGQGTQVTVSS”, the “polyreactivity (PSR sort gate)” value is reported as “high polyreactivity”.
In the case of “QVQLVESGGGLVQAVGSLLLSCAASGSIFRVYAMGWSRQAPGKERELVAAISVSGSSTYYADSVKGRFTISRDNAKNTVYFQMNCLIPEDTAVYYCATKQRRGYWGYITAYARYYWGQGTQVTVSS”, the “polyreactivity (PSR sort gate)” value is reported as “high polyreactivity”.
In the case of “QVQLVESGGGLVQAGGSLRLSCAASGRIFYRYAMGWYRQAPGKERELVASISGSGGRTYYADSVKGRFTISRDNAKNTVDLQMNSLKPEDTAVYYCAARIRPSYDWGQGTQVTVSS”, the “polyreactivity (PSR sort gate)” value is reported as “high polyreactivity”.
With “QVQLVESGGGLVQAGGSLRLSCAASGSTFASNAMGWDRQAPGKERELVAVITWRGDRTYYADSVKGRFTISRDNAKNTVYLQMNSLKPEDTAVYYCAADAYRRYGVGWEDYWGQGTQVTVSS” the “polyreactivity (PSR sort gate)” value was “high polyreactivity”.
With “QVQLVESGGGLVQAGGILRLSCAASGITFGRNAMGWYRQAPGKERELVAAITISGGGTYYADSVKGRFTISRDNAKNTVYLQMNSLKPEDTAVYYCAADRSTVWVHYPHAGGSWGHGTQVTVSS” the “polyreactivity (PSR sort gate)” value was “high polyreactivity”.
In the case of “QVQLVESGGGLVQAGGSLRLSCAASGFIFSRNTMGWYRQAPGKERELVAAISRGGGSTYYADSVKGRFTISRDNAKNTVYLQMNSLKPEDTAVYYCNTRIVAAGRYDYWGQGTQVTVSS”, the “polyreactivity (PSR sort gate)” value is reported as “high polyreactivity”.
In the case of “QVQLVESRGGLVQAGGSLRLSCAASGFTFQRYAMGWYRQAPGKERELVAAINRSGGNTHYADSVKGRFTISRDNAKNTVYLQMNSLKPDDTAVYYCAVGTPASVGHYTYDYWGQGTQVTVSS”, the “polyreactivity (PSR sort gate)” value is reported as “high polyreactivity”.
With “QVQLVESGGGLGQAGGSLRLSCAASGRIFSQNAMGWYRQAPGNERELVAAITGNGGDTYYADSVKGRFTISRDNAKNTVYLQMNSLKPEDTAVYYCAARVPPVYGRVGGYHYWGPGTQVTVSS” the “polyreactivity (PSR sort gate)” value was “low polyreactivity”.
In the case of “QVQLVESGGGLVQAGGSLRLSCAASGFTFYRNAMGWYRQAPGKERELVAAISSRGGSTYYADSVKGRFTISRDNAKNTVYLQMNSLKPEDTAVYYCAAYGNYNEYDYWGQGTQVTVSS”, the “polyreactivity (PSR sort gate)” value is reported as “high polyreactivity”.
In the case of “QDQLVESGGGLVQAGGSLRLICAASGRIFGVNAMGWYRQAPGKERELVAVISSGGSTYYADSVKGRFTISRDNAKNTVYLQMNSLKPEDTAVYYCAAEIYFFVSYDYWGQGTQVTVSS”, the “polyreactivity (PSR sort gate)” value is reported as “low polyreactivity”.
For “QVQLVESGGGLVQAGGSLRLSCAASGSTFTWYAMGWYRQAPWKERELVADISYGGGSTYYADSVKGRFTISRDNAKNTVYLQMNSLKPEDTEVYYCAAASYLYLYLLEDYWGQGTQVTVSS”, the “polyreactivity (PSR sort gate)” value was “low polyreactivity”.
